According to the supplement of paper PMC9732359:
± gives the uncertainty stated by the source.

Test: protein stability index of a GFP-peptide fusion (yeast GPS) (PSI 1-4); higher = more stable; sorted into four equal gates, so the index is relative within each strain
Conditions: ubr1∆
Outline: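 Each library plasmid carries Cherry plus GFP with a tiled 17-residue yeast protein peptide fused downstream, and the pooled library was carried in yeast. Mid-log cultures in leucine-free medium were sorted into four equal gates by GFP/Cherry ratio. Reads from Illumina sequencing of PCR-amplified plasmids from each gate were assigned to strains by barcodes. Per peptide, the protein stability index was computed as the summed products of gate read frequency and gate number.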

| Sequence | protein stability index |
| --- | --- |
| QEPSASQVKDSVTETES [SRP68] | 2.81 ± 0.19 |
| QESLVKLFTTNELMRWP [RPN5] | 2.91 ± 0.13 |
| QEVTNEAPFLTSGTSSE [GAL11] | 3.13 ± 0.073 |
| QFKSKEVEKAHPIRLYT [PRP8] | 2.86 ± 0.06 |
| QFSYLSSTLGIDLEDIK [PCI8] | 2.01 ± 0.07 |
| QFVETIVSKSIEMYVQE [RPN2] | 1.15 ± 0.2 |
| QFYVKRWKRFTIGAIFL [CDC53] | 2.04 ± 0.055 |
| QGLNILEWLENPSNTPD [FAS1] | 3.14 ± 0.058 |
| QGNYPTTSYIKEQENIT [DPB4] | 3.18 ± 0.075 |
| QGPIVADKNCAKLHRIS [PUP1] | 2.64 ± 0.072 |
| QIDHFKSMLSKPETLSI [SWI3] | 2.4 ± 0.048 |
| QIIRRVKEMEPKQSDEY [SIR3] | 2.89 ± 0.15 |
| QIPQQLYQSLTPQQLQM [SNF5] | 2.77 ± 0.034 |
| QIQQQQQKQQQQQQQHQ [SNF5] | 2.61 ± 0.22 |
| QKKIQINKEMGELNSKL [SMC3] | 3.15 ± 0.13 |
| QKRLEAGALNLASPEVK [DIS3] | 2.82 ± 0.081 |
| QKTQELNAKYQSLGLDD [ISW2] | 3.31 ± 0.052 |
| QKTRVKLLFDHDELDMN [ESC2] | 3.12 ± 0.093 |
| QKTVNLKNIMKVSDPYV [RPN4] | 1.82 ± 0.058 |
| QLDSKLMVFNDDTKNQD [YGR119C/NUP57] | 2.91 ± 0.045 |
| QLFHSMSIVFGDKFSED [UBP6] | 1.38 ± 0.041 |
| QLGEWAGLGKIDREGNA [RPS12] | 3.35 ± 0.14 |
| QLLEKAPIPIREDIDDP [BRR2] | 1.92 ± 0.058 |
| QLNEERSRYRREIDALK [YIL149C/MLP2] | 3.25 ± 0.035 |
| QLNGNETFSTSAHQSPI [SNF2] | 3.22 ± 0.054 |
| QLQGPQWMNEMVERWAN [SOH1] | 3.06 ± 0.084 |

| Sequence | protein stability index |
| --- | --- |
| QLSNGIVVATEHNPSAH [COR1] | 2.52 ± 0.074 |
| QLTPQQQQLVNQMKVAP [GAL11] | 2.79 ± 0.049 |
| QLVPIRLEFDQDRDRFF [SNF5] | 3.1 ± 0.078 |
| QLWLNSSGDFDDNNNNN [GRR1] | 3.06 ± 0.055 |
| QLYFQKNGAQDLVLQIL [RRI2] | 2.62 ± 0.048 |
| QMAVHIATDGGRICRPL [RET1] | 2.8 ± 0.054 |
| QNAKLLANLIRDALRNI [RRP6] | 2.23 ± 0.043 |
| QNFENDFSLRYISNLLY [REC8] | 2.06 ± 0.043 |
| QNNLPPNFFLTLISENW [BRR2] | 2.94 ± 0.072 |
| QNQGGAQAPFDIDDLAF [ROX3] | 3.37 ± 0.065 |
| QNRSLQEHNIQDSNVMP [SNF2] | 3.31 ± 0.04 |
| QNSKFLKVNVTLDNPLL [YJL039C/NUP192] | 2.36 ± 0.044 |
| QPEVAVKAAINFSNVTD [YIL149C/MLP2] | 2.55 ± 0.048 |
| QPKLNPMASSSSFGSES [SWI1] | 2.92 ± 0.057 |
| QPKRNLSRYVKWPEYVR [RPL8A] | 2.99 ± 0.066 |
| QPNEISFKYLSNNDEDD [RGR1] | 2.36 ± 0.039 |
| QPQHPHYVSTSKISQMA [YLR018C/POM34] | 2.19 ± 0.026 |
| QQAQSFVGKKNTIGSVH [SSN3] | 2.98 ± 0.097 |
| QQEAKYRNNEPAGFTHK [YDL088C/ASM4] | 2.83 ± 0.045 |
| QQENSKSGKRKPNIILD [RPC31] | 2.79 ± 0.076 |
| QQFNLHEILSEPAIEEE [MED1] | 3.26 ± 0.13 |
| QQGQNMSEQQWREQLRN [ROX3] | 2.23 ± 0.032 |
| QQLDSFNQFVDYTLQDI [RPB2] | 2.43 ± 0.086 |
| QQLLKGLSLSFSKKLDL [DSN1] | 3.16 ± 0.075 |
| QQLLPAPQLFPYGSFHQ [DSN1] | 3.04 ± 0.08 |
| QQLVDSEKRLDHFIHLR [SNF12] | 2.68 ± 0.076 |

| Sequence | protein stability index |
| --- | --- |
| QQPNPLHGLTPTAKDVE [GAL11] | 3.07 ± 0.033 |
| QQQLQQNSKEKNGLGLN [MED2] | 2.96 ± 0.13 |
| QQQPQPQYNMNMGMNNM [PGD1] | 2.89 ± 0.069 |
| QQQQQQQQQTSPPPQTH [SNF5] | 2.824 ± 0.009 |
| QRDRHTLAYDRGHRIRR [PRP8] | 2.87 ± 0.048 |
| QRESQIGAAELNENARE [SNF12] | 3.35 ± 0.044 |
| QRGEDDLTFKLADILKA [RPO21] | 2.1 ± 0.046 |
| QRGKMHGLKQLRDSLAD [NUT2] | 2.1 ± 0.06 |
| QRIIKELSIRFPQYKLT [ARP7] | 1.7 ± 0.047 |
| QRKTNGASNGDDSNGGN [BRN1] | 3.64 ± 0.15 |
| QRMHAIHEIDERLAKVN [NNF1] | 2.14 ± 0.061 |
| QRQLLVQQQQQQQLRNQ [SNF5] | 2.6 ± 0.1 |
| QRVRNMRELGLIQSTEF [YOR098C/NUP1] | 2.22 ± 0.12 |
| QSISGTLELSAQFRVPR [SWP82] | 2.79 ± 0.066 |
| QSNEDTFLPSYMKFSNK [RRI2] | 3.18 ± 0.048 |
| QSRVPTSLTSIKWENAF [PRP8] | 3.18 ± 0.048 |
| QSSEDVITIKSRIRVKI [RPB7] | 3 ± 0.12 |
| QSTPQPDDMVEINSVGN [ITC1] | 3.18 ± 0.075 |
| QTDADRVKDPQWLIMLG [RIP1] | 2.6 ± 0.12 |
| QTFNFDSFENYFNQLKP [RPN12] | 3 ± 0.046 |
| QTIEMITQIVEKDFCTS [SRB8] | 3.02 ± 0.048 |
| QTIPIQIYGFEGLNQRN [YGR119C/NUP57] | 3.08 ± 0.18 |
| QTLGLESFTEELSNELS [MED1] | 3 ± 0.037 |
| QTLSSHLEALQPLFSTV [PGD1] | 2.49 ± 0.034 |
| QTRAKLLDNEIRIFRSE [RPT5] | 2.95 ± 0.056 |
| QTVRLIKDLQRAINKVL [SIR2] | 2 ± 0.039 |

| Sequence | protein stability index |
| --- | --- |
| QVENMKWDFAKDIKGYG [PRE4] | 1.68 ± 0.049 |
| QVILPMSPNHGTFGGDG [FAS2] | 3.07 ± 0.048 |
| QVNIRFLLHNSEIIDTN [SRB8] | 2.7 ± 0.04 |
| QVPLQQTQAIAQQQQLS [YGR119C/NUP57] | 2.29 ± 0.06 |
| QVPQVRSMSGQPPTNVQ [SNF5] | 2.95 ± 0.035 |
| QVRKDLGNVIVPNILSL [NUT1] | 2.62 ± 0.07 |
| QWLIMLGICTHLGCVPI [RIP1] | 1.46 ± 0.089 |
| QWMVSLFNNHLNGILAD [SNF2] | 1.2 ± 0.059 |
| QWRYLYDTQLKVSPEEL [ARP7] | 1.67 ± 0.049 |
| QYESQAPDGSASISLPN [SWP82] | 2.83 ± 0.029 |
| QYILQIVSFIVNCFHED [YJL039C/NUP192] | 2.3 ± 0.057 |
| QYQLLYNLKNDILTNLE [SWI1] | 1.65 ± 0.031 |
| QYSTRHDAPRGLFPFES [SWI3] | 3.13 ± 0.067 |
| RADIVRNIILEARFDVL [ISW2] | 2.51 ± 0.073 |
| RADVEDESNDIDMIADE [RPC37] | 3.27 ± 0.066 |
| RAGMTHEDEKLIPTIFR [PRP8] | 3.19 ± 0.05 |
| RAIYSYLSGAIPNQEVL [YDL116W/NUP84] | 2.76 ± 0.055 |
| RAKAEAAEFRYKYGYDM [SCL1] | 2.57 ± 0.047 |
| RAKAMKFADGFLIHSGQ [RPS3] | 3.22 ± 0.037 |
| RAKKTRALRRALTKFEA [RPL35A] | 3.11 ± 0.15 |
| RALFRQLKRWYWQFNGV [RMP1] | 1.34 ± 0.11 |
| RALSIFSPDGHIFQVEY [PRE6] | 3.1 ± 0.032 |
| RAPKANGALDPKMGVSS [RPO31] | 3.04 ± 0.08 |
| RAQLENEIEGKNEETPQ [RPC25] | 3.38 ± 0.078 |
| RASLVPGTVLILLAGRF [RPL6A] | 1.75 ± 0.082 |
